Measured values: patent publication US20230140797A1 (published 2023)
Numbering of substitutions follows the chain as printed. Values belong to the binder of their own block, whether it stands above or below them.

Key:
[1] = target: T1, human FcγRIIb extracellular domain with C-terminal His tag (human, UniProt P31994 43-217); test: SPR
T1 sequence (looked up): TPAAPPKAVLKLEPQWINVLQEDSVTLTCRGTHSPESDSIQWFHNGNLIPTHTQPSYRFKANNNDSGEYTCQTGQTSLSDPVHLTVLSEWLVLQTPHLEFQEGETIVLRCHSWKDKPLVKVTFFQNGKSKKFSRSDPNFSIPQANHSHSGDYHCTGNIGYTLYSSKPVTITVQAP

[2] = target: T1, human FcγRIIb extracellular domain with …; test: SPR; remark: listed apart in the source
[3] = target: T2, human FcγRIIa type H extracellular domain with C-terminal His tag (human, UniProt P12318 34-217); test: SPR
T2 sequence (looked up): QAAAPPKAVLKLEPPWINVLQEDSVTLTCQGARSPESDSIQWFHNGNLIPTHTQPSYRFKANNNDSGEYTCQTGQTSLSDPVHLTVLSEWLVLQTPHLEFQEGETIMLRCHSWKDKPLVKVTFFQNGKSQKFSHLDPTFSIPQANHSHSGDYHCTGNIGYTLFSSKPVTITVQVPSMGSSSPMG

[4] = target: T3, human FcγRIIa type R extracellular domain with C-terminal His tag (human, UniProt P12318 34-217); test: SPR
T3 sequence (looked up): T2 sequence (looked up) with H134R

[5] = target: human FcγRIIIa type V extracellular domain with C-terminal His tag (human, UniProt P08637 17-208); test: SPR Biacore, amount bound per captured antibody
[6] = target: T4, human FcγRIIa type R extracellular domain with C-terminal His tag (human, UniProt P12318 34-217); test: SPR Biacore, amount bound per captured antibody
T4 sequence (looked up): T2 sequence (looked up) with H134R

[7] = target: T5, human FcγRIIb extracellular domain with C-terminal His tag (human, UniProt P31994 43-217); test: SPR Biacore, amount bound per captured antibody
T5 sequence (looked up): T1 sequence (looked up)

[8] = target: T6, human FcγRIIa type H extracellular domain with C-terminal His tag (human, UniProt P12318 34-217); test: SPR Biacore, amount bound per captured antibody
T6 sequence (looked up): T2 sequence (looked up)

[9] = target: human FcγRIa extracellular domain with C-terminal His tag (human, UniProt P12314 16-292); test: SPR Biacore, amount bound per captured antibody
human IgA (hIgA) = human IgA (hIgA) (human); test: Biacore T200 SPR
[10] = target: T7, biotinylated GPC3 peptide (human, biotin on the C-terminal Lys); test: Biacore T200 SPR, peptide on Sensor chip SA
T7 peptide: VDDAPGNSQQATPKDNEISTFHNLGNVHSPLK

[11] = target: T8, human FcγRIIb extracellular domain with C-terminal His tag (human, UniProt P31994 43-217); test: Biacore SPR
T8 sequence (looked up): T1 sequence (looked up)

[12] = target: T9, human FcγRIIa type R extracellular domain with C-terminal His tag (human, UniProt P12318 34-217); test: Biacore SPR
T9 sequence (looked up): T2 sequence (looked up) with H134R

human FcγRIa extracellular domain with C-terminal His tag, sequence (P12314 16-292): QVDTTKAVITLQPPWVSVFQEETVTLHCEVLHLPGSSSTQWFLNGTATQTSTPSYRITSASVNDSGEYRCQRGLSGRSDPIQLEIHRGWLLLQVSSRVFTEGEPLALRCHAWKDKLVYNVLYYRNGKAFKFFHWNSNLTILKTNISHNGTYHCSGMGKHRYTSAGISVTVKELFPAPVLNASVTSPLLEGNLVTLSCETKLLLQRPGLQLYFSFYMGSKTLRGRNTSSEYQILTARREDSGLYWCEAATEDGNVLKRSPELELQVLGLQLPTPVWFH
human FcγRIIIa type V extracellular domain with C-terminal His tag, sequence (P08637 17-208 F176V): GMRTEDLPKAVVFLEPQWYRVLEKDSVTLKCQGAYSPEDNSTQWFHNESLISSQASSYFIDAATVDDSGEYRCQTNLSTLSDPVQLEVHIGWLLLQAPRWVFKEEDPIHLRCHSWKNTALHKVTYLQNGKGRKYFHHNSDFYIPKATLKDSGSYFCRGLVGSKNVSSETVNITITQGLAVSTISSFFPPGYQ

B3: IL6R-BP199/IL6R-L (antibody, human IgG1, kappa)
heavy: QVQLQESGPGLVKPSETLSLTCAVSGHSISHDHAWSWVRQPPGEGLEWIGFISYSGITNYNPSLQGRVTISRDNSKNTLYLQMNSLRAEDTAVYYCARSLARTTAMDYWGEGTLVTVSSASTKGPSVFPLAPSSKSTSGGTAALGCLVKDYFPEPVTVSWNSGALTSGVHTFPAVLQSSGLYSLSSVVTVPSSSLGTQTYICNVNHKPSNTKVDKKVEPKSCDKTHTCPPCPAPDLLGGDSVFLFPPKPKDTLMISRTPEVTCVVVDVSHEDPEVKFNWYVDGVEVHNAKTKPREEQYNSTYRVVSVLTVLHQDWLNGKEYKCKVSNAALPRPIEKTISKAKGQPREPQVYTLPPSRDELTKNQVSLTCLVKGFYPSDIAVEWESNGQPENNYKTTPPVLDSDGSFFLYSKLTVDKSRWQQGNVFSCSVMHEALHNHYTQESLSLSP
light: not shown
- relative binding activity [5]: 103 % of IL6R-BF648/IL6R-L
- relative binding activity [6]: 172 % of IL6R-BF648/IL6R-L
- relative binding activity [7]: 144 % of IL6R-BF648/IL6R-L
- relative binding activity [8]: 116 % of IL6R-BF648/IL6R-L
- relative binding activity [9]: 112 % of IL6R-BF648/IL6R-L

B4: GA2-IgG1 (antibody, V domains shown)
VH: QVQLVQSGAEVKKPGSSVKVSCKASGGTFSSYAISWVRQAPGQGLEWMGGIIPIFGTANYAQKFQGRVTITADESTSTAYMELSSLRSEDTAVYYCARPRWETAISSDAFDIWGQGTMVTVSS
VL: DIQMTQSPSSLSASVGDRVTITCRASQSISDDLNWYQQKPGKAPKLLIYEASNLQSGVPSRFSGSGSGTDFTLTISSLQPEDFATYYCQQHSSSPLTFGQGTKVEIKR
- Ca-dependent hIgA-binding activity (fold) (human IgA (hIgA)): 100 times

B6: IL6R-BP478/IL6R-L (antibody)
heavy: QVQLQESGPGLVKPSETLSLTCAVSGHSISHDHAWSWVRQPPGEGLEWIGFISYSGITNYNPSLQGRVTISRDNSKNTLYLQMNSLRAEDTAVYYCARSLARTTAMDYWGEGTLVTVSSASTKGPSVFPLAPCSRSTSESTAALGCLVKDYFPEPVTVSWNSGALTSGVHTFPAVLQSSGLYSLSSVVTVPSSSLGTKTYTCNVDHKPSNTKVDKRVESKYGPPCPPCPAPDLLGDDSVFLFPPKPKDTLMISRTPEVTCVVVDVSDEDGEVKFNWYVDGVEVHNAKTKPREEQDNSTYRVVSVLTVLHQDWLNGKEYKCKVSNKALPRPIEKTISKAKGQPREPQVYTLPPSRDELTKNQVSLTCLVKGFYPSDIAVEWESNGQPENNYKTTPPVLDSDGSFFLYSKLTVDKSRWQQGNVFSCSVMHEALHNHYTQESLSLSP
light: not shown
- fold binding against IL6R-BP230/IL6R-L [11]: 1.1 times
- fold binding against IL6R-BP230/IL6R-L [12]: 0.9 times

The remaining lines, values ahead:

- KD (IIaR)/KD (IIb) [1]: 36.8
- KD (IIaH)/KD (IIb) [2]: 803
- Kd [3]: 4.8 µM
B1: IL6R-BP540/IL6R-L (antibody, human IgG1, kappa)
heavy: B3 heavy with D235E, G239D, V266I, H270E, P273G, E274P, Y298D, A328K
light: not shown

- KD (IIaR)/KD (IIb) [1]: 58.4
- KD (IIaH)/KD (IIb) [2]: 712
- Kd [4]: 0.016 µM
B2: IL6R-BP559/IL6R-L (antibody, human IgG1, kappa)
heavy: B3 heavy with D235E, V266I, S269A, H270E, P273G, E274D, Y298D, A328K, R332A
light: not shown

- binding result [10]: binds
B5: human IgE (hIgE) (antibody)
heavy: QVQLVQSGAEVKKPGASVKVSCKASGYTFTDYEMHWVRQAPGQGLEWMGALDPKTGDTAYSQKFKGRVTLTADKSTSTAYMELSSLTSEDTAVYYCTRFYSYTYWGQGTLVTVSSASTQSPSVFPLTRCCKNIPSNATSVTLGCLATGYFPEPVMVTWDTGSLNGTTMTLPATTLTLSGHYATISLLTVSGAWAKQMFTCRVAHTPSSTDWVDNKTFSVCSRDFTPPTVKILQSSCDGGGHFPPTIQLLCLVSGYTPGTINITWLEDGQVMDVDLSTASTTQEGELASTQSELTLSQKHWLSDRTYTCQVTYQGHTFEDSTKKCADSNPRGVSAYLSRPSPFDLFIRKSPTITCLVVDLAPSKGTVNLTWSRASGKPVNHSTRKEEKQRNGTLTVTSTLPVGTRDWIEGETYQCRVTHPHLPRALMRSTTKTSGPRAAPEVYAFATPEWPGSRDKRTLACLIQNFMPEDISVQWLHNEVQLPDARHSTTQPRKTKGSGFFVFSRLEVTRAEWEQKDEFICRAVHEAASPSQTVQRAVSVNPGK
light: DVVMTQSPLSLPVTPGEPASISCRSSQSLVHSNRNTYLHWYLQKPGQSPQLLIYKVSNRFSGVPDRFSGSGSGTDFTLKISRVEAEDVGVYYCSQNTHVPPTFGQGTKLEIKRTVAAPSVFIFPPSDEQLKSGTASVVCLLNNFYPREAKVQWKVDNALQSGNSQESVTEQDSKDSTYSLSSTLTLSKADYEKHKVYACEVTHQGLSSPVTKSFNRGEC
